Experimental data reported in paper PMC2821902 (Biochemistry, 2009).
Positions count from the first letter of the chain named. Read-outs that look alike come from different tables or passages of the source.

Legend:
[1] = target: Dynein light chain LC8 (wild type) (UniProt Q24117); assay: NMR; conditions: cited from earlier work
[2] = target: the molecule itself; assay: NMR NZ-exchange spectroscopy
[3] = target: the molecule itself
[4] = target: the molecule itself; assay: NMR HSQC peak intensities of monomer and dimer signals in slow exchange
[5] = target: the molecule itself; assay: NMR NZ-exchange spectroscopy; remark: listed apart in the source
[6] = target: the molecule itself; remark: listed apart in the source

## Dynein light chain LC8 (wild type)
[1]; pH high pH (limit (so in the source))
  KD: < 1 µM
[1]; pH
  pKa, His55 of LC8 (dimer): < 4.5 pH units
  pKa, His55 of LC8 (monomer): 6.5 pH units

B1: LC8 Ser88Glu mutant (phosphomimetic) (natural protein)
chain: MSDRKAVIKNADMSEEMQQDAVDCATQALEKYNIEKDIAAYIKKEFDKKYNPTWHCIVGRNFGSYVTHETRHFIYFYLGQVAILLFKEG
[2]
  koff: 1.9 to 5.7 s⁻¹
  kon: 1200 to 3000 M⁻¹ s⁻¹
[3]
  KD of the protonation state His55+/His55+, Glu88/Glu88 (from the model): 25000 µM
  KD of the protonation state His55+/His55+, Glu88/Glu88− (from the model): 110000 µM
  KD of the protonation state His55+/His55+, Glu88−/Glu88− (from the model): 1.8e+07 mM
  KD of the protonation state His55/His55+, Glu88/Glu88 (from the model): 17 µM
  KD of the protonation state His55/His55+, Glu88/Glu88− (from the model): 6800 µM
  KD of the protonation state His55/His55+, Glu88−/Glu88− (from the model): 12000 mM
  KD of the protonation state His55/His55, Glu88/Glu88 (from the model): 0.071 µM
  KD of the protonation state His55/His55, Glu88/Glu88− (from the model): 28 µM
[4]
  Kd: 930 µM

B2: wild-type dynein light chain LC8 (natural protein)
chain: B1 chain with E88S
[5]
  koff: 0.05 to 0.24 s⁻¹
  kon: 1000 to 3000 M⁻¹ s⁻¹
[6]
  KD at neutral pH: < 0.1 µM
[3]
  KD of the protonation state His55+/His55+ (from the model): 21000 µM
  KD of the protonation state His55/His55 (from the model): 0.06 µM
  KD of the protonation state His55/His55+ (from the model): 14 µM
